From US20250270301A1

What was measured:
[1] = target: monomeric P301S 2N4R tau, pHrodo-labelled (human) (UniProt P10636); experiment: cell-based or functional assay
[2] = target: aggregated (oligomeric) P301S 2N4R tau, pHrodo-labelled (human) (UniProt P10636); experiment: cell-based or functional assay
Chain of aggregated (oligomeric) P301S 2N4R tau, pHrodo-labelled (human) (P10636 other isoform, or with tags, fused parts or gaps P301S P301S): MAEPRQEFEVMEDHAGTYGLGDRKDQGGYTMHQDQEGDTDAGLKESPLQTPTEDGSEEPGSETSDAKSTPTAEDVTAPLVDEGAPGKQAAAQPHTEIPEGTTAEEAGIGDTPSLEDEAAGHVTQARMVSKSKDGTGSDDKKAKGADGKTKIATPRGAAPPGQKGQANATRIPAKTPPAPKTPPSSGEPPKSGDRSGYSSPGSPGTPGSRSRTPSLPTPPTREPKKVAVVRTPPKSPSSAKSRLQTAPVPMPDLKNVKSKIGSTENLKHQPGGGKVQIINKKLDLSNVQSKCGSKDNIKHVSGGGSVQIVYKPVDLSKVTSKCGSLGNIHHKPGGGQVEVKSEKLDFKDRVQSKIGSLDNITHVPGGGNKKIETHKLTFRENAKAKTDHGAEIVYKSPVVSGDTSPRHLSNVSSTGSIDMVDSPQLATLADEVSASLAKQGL

Chain of monomeric P301S 2N4R tau, pHrodo-labelled (human) (P10636 other isoform, or with tags, fused parts or gaps P301S P301S): as above

isotype control human IgG1 (anti-fluorescein, Absolute Antibody)
inhibition of monomeric tau uptake into human iPSC-derived neurons [1]: 6.2%
inhibition of aggregated tau uptake into human iPSC-derived neurons [2]: 14.3%
